Data taken from patent publication US20200024330A1.

Experiments:
[1] = biological target: Env of all HIV-1 pseudoviruses of the cross-clade 162-pseudovirus panel (n = 162); test: cell-based or functional assay
[2] = biological target: Env of the clade B HIV-1 pseudoviruses of the cross-clade 162-pseudovirus panel (n = 31); test: cell-based or functional assay
[3] = biological target: Env of the clade D HIV-1 pseudoviruses of the cross-clade 162-pseudovirus panel (n = 25); test: cell-based or functional assay
[4] = biological target: Env of the clade G HIV-1 pseudoviruses of the cross-clade 162-pseudovirus panel (n = 15); test: cell-based or functional assay
[5] = biological target: HIV-1 92BR020 envelope glycoprotein (Env) (HIV-1); test: cell-based or functional assay
[6] = biological target: HIV-1 APV17 envelope glycoprotein (Env) (HIV-1); test: cell-based or functional assay
[7] = biological target: HIV-1 APV6 envelope glycoprotein (Env) (HIV-1); test: cell-based or functional assay
[8] = biological target: HIV-1 Env of isolate MGRM-C-026 (HIV-1); test: cell-based or functional assay
[9] = biological target: HIV-1 JR-CSF Env F210A (HIV-1 JR-CSF) (UniProt P20871); test: cell-based or functional assay
[10] = biological target: HIV-1 JR-CSF Env H330A (HIV-1 isolate JR-CSF) (UniProt P20871); test: cell-based or functional assay
[11] = biological target: HIV-1 JR-CSF Env I307A (HIV-1 JR-CSF) (UniProt P20871); test: cell-based or functional assay
[12] = biological target: HIV-1 JR-CSF Env I309A (HIV-1 JR-CSF) (UniProt P20871); test: cell-based or functional assay
[13] = biological target: HIV-1 JR-CSF Env I414A (HIV-1 (isolate JR-CSF)) (UniProt P20871); test: cell-based or functional assay
[14] = biological target: HIV-1 JR-CSF Env I415A (HIV-1 (isolate JR-CSF)) (UniProt P20871); test: cell-based or functional assay
[15] = biological target: HIV-1 JR-CSF Env I423A (HIV-1 (isolate JR-CSF)) (UniProt P20871); test: cell-based or functional assay
[16] = biological target: HIV-1 JR-CSF Env I424A (HIV-1 (isolate JR-CSF)) (UniProt P20871); test: cell-based or functional assay
[17] = biological target: HIV-1 JR-CSF Env N241A (HIV-1 JR-CSF) (UniProt P20871); test: cell-based or functional assay
[18] = biological target: HIV-1 JR-CSF Env N301A (HIV-1 JR-CSF) (UniProt P20871); test: cell-based or functional assay
[19] = biological target: HIV-1 JR-CSF Env N302A (HIV-1 JR-CSF) (UniProt P20871); test: cell-based or functional assay
[20] = biological target: HIV-1 JR-CSF Env N332A (HIV-1 isolate JR-CSF) (UniProt P20871); test: cell-based or functional assay
[21] = biological target: HIV-1 JR-CSF Env N411A (HIV-1 (isolate JR-CSF)) (UniProt P20871); test: cell-based or functional assay
[22] = biological target: HIV-1 JR-CSF Env Q337A (HIV-1 isolate JR-CSF) (UniProt P20871); test: cell-based or functional assay
[23] = biological target: HIV-1 JR-CSF Env R350A (HIV-1 isolate JR-CSF) (UniProt P20871); test: cell-based or functional assay
[24] = biological target: HIV-1 JR-CSF Env S199A (HIV-1 JR-CSF) (UniProt P20871); test: cell-based or functional assay
[25] = biological target: HIV-1 JR-CSF Env S334A (HIV-1 isolate JR-CSF) (UniProt P20871); test: cell-based or functional assay
[26] = biological target: HIV-1 JR-CSF Env T297A (HIV-1 JR-CSF) (UniProt P20871); test: cell-based or functional assay
[27] = biological target: HIV-1 JR-CSF Env T319A (HIV-1 isolate JR-CSF) (UniProt P20871); test: cell-based or functional assay
[28] = biological target: HIV-1 JR-CSF Env T320A (HIV-1 isolate JR-CSF) (UniProt P20871); test: cell-based or functional assay
[29] = biological target: HIV-1 JR-CSF Env T341A (HIV-1 isolate JR-CSF) (UniProt P20871); test: cell-based or functional assay
[30] = biological target: HIV-1 JR-CSF Env T388A (HIV-1 (isolate JR-CSF)) (UniProt P20871); test: cell-based or functional assay
[31] = biological target: HIV-1 JR-CSF Env T394A (HIV-1 (isolate JR-CSF)) (UniProt P20871); test: cell-based or functional assay
[32] = biological target: HIV-1 JR-CSF Env T413A (HIV-1 (isolate JR-CSF)) (UniProt P20871); test: cell-based or functional assay
[33] = biological target: HIV-1 JRFL envelope glycoprotein (Env) (HIV-1); test: cell-based or functional assay
[34] = biological target: HIV-1 MGRM-A-010 envelope glycoprotein (Env) (HIV-1); test: cell-based or functional assay
[35] = biological target: HIV-1 MGRM-C-027 envelope glycoprotein (Env) (HIV-1); test: cell-based or functional assay
[36] = biological target: JR-FL gp120 ΔV1/ΔV2 (HIV-1 (isolate JR-FL)); test: ELISA on coated gp120; EC50 by nonlinear regression
[37] = biological target: WT JR-FL gp120 (HIV-1 (isolate JR-FL)); test: as above
[38] = biological target: HIV-1 Env of isolate 92UG031 (HIV-1); test: cell-based or functional assay
[39] = biological target: HIV-1 Env of isolate 94KE105 (HIV-1); test: cell-based or functional assay
[40] = biological target: HIV-1 Env of isolate MGRM-A-005 (HIV-1); test: cell-based or functional assay
[41] = biological target: HIV-1 Env of isolate MGRM-A-006 (HIV-1); test: cell-based or functional assay
[42] = biological target: HIV-1 Env of isolate MGRM-AE-003 (HIV-1); test: cell-based or functional assay

B1: PGT-135 (antibody, V domains shown)
VH: QLQMQESGPGLVKPSETLSLSCTVSGDSIRGGEWGDKDYHWGWVRHSAGKGLEWIGSIHWRGTTHYKESLRRRVSMSIDTSRNWFSLRLASVTAADTAVYFCARHRHHDVFMLVPIAGWFDVWGPGVQVTVSS
VL: EIVMTQSPDTLSVSPGETVTLSCRASQNINKNLAWYQYKPGQSPRLVIFETYSKIAAFPARFVASGSGTEFTLTINNMQSEDVAVYYCQQYEEWPRTFGQGTKVDIK
Median IC50 against viruses neutralized with an IC50 <50 µg/ml [1]: 0.17 µg/mL
Median IC50 against viruses neutralized with an IC50 <50 µg/ml [2]: 0.15 µg/mL
Median IC50 against viruses neutralized with an IC50 <50 µg/ml [3]: 1.09 µg/mL
Median IC50 against viruses neutralized with an IC50 <50 µg/ml [4]: 0.14 µg/mL
IC50 neutralization [5]: 0.104 µg/mL
IC50 neutralization [6]: > 10 µg/mL
IC50 neutralization [7]: > 10 µg/mL
Primary Neutralization Index (B cell culture well 5343 B8) [8]: 6.5
Primary Neutralization Index (B cell culture well 5344 E16) [8]: 3.6
Fold IC50 increase relative to wild-type [9]: 1.3 fold
Fold IC50 increase relative to wild-type [10]: > 250 fold
Fold IC50 increase relative to wild-type [11]: 0.3 fold
Fold IC50 increase relative to wild-type [12]: 0.3 fold
Fold IC50 increase relative to wild-type [13]: 1.2 fold
Fold IC50 increase relative to wild-type [14]: 5 fold
Fold IC50 increase relative to wild-type [15]: 0.1 fold
Fold IC50 increase relative to wild-type [16]: 0.1 fold
Fold IC50 increase relative to wild-type [17]: 0.1 fold
Fold IC50 increase relative to wild-type [18]: 0.5 fold
Fold IC50 increase relative to wild-type [19]: 0.8 fold
Fold IC50 increase relative to wild-type [20]: > 250 fold
Fold IC50 increase relative to wild-type [21]: 0.2 fold
Fold IC50 increase relative to wild-type [22]: 2.1 fold
Fold IC50 increase relative to wild-type [23]: 0.9 fold
Fold IC50 increase relative to wild-type [24]: 0.3 fold
Fold IC50 increase relative to wild-type [25]: > 30 fold
Fold IC50 increase relative to wild-type [26]: > 30 fold
Fold IC50 increase relative to wild-type [27]: 0.4 fold
Fold IC50 increase relative to wild-type [28]: 0.5 fold
Fold IC50 increase relative to wild-type [29]: 0.6 fold
Fold IC50 increase relative to wild-type [30]: 0.1 fold
Fold IC50 increase relative to wild-type [31]: > 75 fold
Fold IC50 increase relative to wild-type [32]: 0.3 fold
IC50 neutralization [33]: > 10 µg/mL
IC50 neutralization [34]: > 10 µg/mL
IC50 neutralization [35]: > 10 µg/mL
EC50 [36]: 0.1 µg/mL
EC50 [37]: 0.1 µg/mL

B2: PGT-123 (antibody, V domains shown)
VH: QLHLQESGPGLVKPPETLSLTCSVSGASINDAYWSWIRQSPGKRPEWVGYVHHSGDTNYNPSLKRRVTFSLDTAKNEVSLKLVDLTAADSATYFCARALHGKRIYGIVALGELFTYFYMDVWGKGTAVTVSS
VL: SSMSVSPGETAKISCGKESIGSRAVQWYQQKPGQPPSLIIYNNQDRPAGVPERFSASPDFRPGTTATLTITNVDAEDEADYYCHIYDARGGTNWVFDRGTTLTVL
Median IC50 against viruses neutralized with an IC50 <50 µg/ml [1]: 0.03 µg/mL
Median IC50 against viruses neutralized with an IC50 <50 µg/ml [2]: 0.02 µg/mL
Median IC50 against viruses neutralized with an IC50 <50 µg/ml [3]: 0.02 µg/mL
Median IC50 against viruses neutralized with an IC50 <50 µg/ml [4]: 0.04 µg/mL
IC50 neutralization [5]: 0.013 µg/mL
IC50 neutralization [6]: 0.18 µg/mL
IC50 neutralization [7]: 0.0328 µg/mL
IC50 (µg/mL), pseudovirus neutralization [38]: > 50 µg/mL
IC50 (µg/mL), pseudovirus neutralization [39]: 0.024 µg/mL
IC50 (µg/mL), pseudovirus neutralization [40]: > 50 µg/mL
IC50 (µg/mL), pseudovirus neutralization [41]: > 50 µg/mL
IC50 (µg/mL), pseudovirus neutralization [42]: > 50 µg/mL
Primary Neutralization Index (B cell culture well 4858 P8) [8]: 33.8
Fold IC50 increase relative to wild-type [9]: 2.8 fold
Fold IC50 increase relative to wild-type [10]: 0.3 fold
Fold IC50 increase relative to wild-type [11]: 5.9 fold
Fold IC50 increase relative to wild-type [12]: 1.6 fold
Fold IC50 increase relative to wild-type [13]: 0.3 fold
Fold IC50 increase relative to wild-type [14]: 0.4 fold
Fold IC50 increase relative to wild-type [15]: 1.5 fold
Fold IC50 increase relative to wild-type [16]: 0.5 fold
Fold IC50 increase relative to wild-type [17]: 0.8 fold
Fold IC50 increase relative to wild-type [18]: 1 fold
Fold IC50 increase relative to wild-type [19]: 1.3 fold
Fold IC50 increase relative to wild-type [20]: > 200 fold
Fold IC50 increase relative to wild-type [21]: 0.5 fold
Fold IC50 increase relative to wild-type [22]: 0.5 fold
Fold IC50 increase relative to wild-type [23]: 0.5 fold
Fold IC50 increase relative to wild-type [24]: 1.1 fold
Fold IC50 increase relative to wild-type [25]: > 50 fold
Fold IC50 increase relative to wild-type [26]: 0.3 fold
Fold IC50 increase relative to wild-type [27]: 0.4 fold
Fold IC50 increase relative to wild-type [28]: 0.7 fold
Fold IC50 increase relative to wild-type [29]: 0.3 fold
Fold IC50 increase relative to wild-type [30]: 0.2 fold
Fold IC50 increase relative to wild-type [31]: 0.4 fold
Fold IC50 increase relative to wild-type [32]: 0.4 fold
IC50 neutralization [33]: 0.0283 µg/mL
IC50 neutralization [34]: 0.492 µg/mL
IC50 neutralization [35]: 0.0169 µg/mL
EC50 [36]: 0.3 µg/mL
EC50 [37]: 0.2 µg/mL
